This is an account of results in PMC12012885, “Cell-Free Reaction System for ATP Regeneration from D-Fructose” (ACS Synthetic Biology, 2025).

Numbering of substitutions follows the chain as printed. Names may count otherwise.

One may read the pKa as the negative logarithm of the acid dissociation constant. The term Km denotes the substrate concentration at which the rate is half of its maximum.

One series has as its target T1, Ps.LrhI (Stutzerimonas stutzeri, UniProt Q75WH8).
T1 construct: gene L-RhI; N-terminal hexa-His tag, synthetic gene in pET-28a, E. coli Rosetta(DE3) pLysS
T1 sequence (Q75WH8 1-430): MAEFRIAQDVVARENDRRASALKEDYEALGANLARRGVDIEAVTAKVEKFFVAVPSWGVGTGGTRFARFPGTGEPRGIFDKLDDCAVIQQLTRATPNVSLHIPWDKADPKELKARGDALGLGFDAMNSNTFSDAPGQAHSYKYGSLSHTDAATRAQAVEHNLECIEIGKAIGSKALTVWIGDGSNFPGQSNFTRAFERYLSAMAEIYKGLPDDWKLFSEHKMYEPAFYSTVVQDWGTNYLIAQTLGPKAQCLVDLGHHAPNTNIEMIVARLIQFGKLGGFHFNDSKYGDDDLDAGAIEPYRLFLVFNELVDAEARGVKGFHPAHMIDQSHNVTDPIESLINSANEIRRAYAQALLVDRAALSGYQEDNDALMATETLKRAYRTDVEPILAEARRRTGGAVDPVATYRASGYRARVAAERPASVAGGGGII
The experiment in a line: coupled assay with D-erythrulose reductase, NADH at […] nm. The note with it: 10 mM D-erythrose, 4 mM MgCl2, pH 7.0, 37 °C. In kind it is biochemical.

Another series concerns the target Asp52 (UniProt position 70, TDGSTDYGILQ). The note with it: cited from earlier work.
Substrate in the series “purified protein”: O=C(CO)[C@H](O)CO
Put plainly: purified protein. In kind it is biochemical, Bifidobacterium adolescentis. The note with it: pH 6.5, 37 °C, 50 mM inorganic phosphate, 0.8 mM TPP, 3.8 mM MgCl2.

Regarding `OC1OC[C@@H](O)[C@H]1O` (stereo partly drawn) [D-erythrose], the “coupled assay with D-erythrulose reductase, NADH at 340 nm” value on Ps.LrhI was “We characterized the D-erythrose activity of the enzyme and its stability under synthesis-like conditions”. Take “Hen egg white lysozyme (lysozyme C) (Gallus gallus)”: the pKa with Asp52 is given as 3.33.

B1: Bad.F6Pkt (Bifidobacterium adolescentis ATCC 15703) (protein)
chain: MTSPVIGTPWKKLNAPVSEEAIEGVDKYWRAANYLSIGQIYLRSNPLMKEPFTREDVKHRLVGHWGTTPGLNFLIGHINRLIADHQQNTVIIMGPGHGGPAGTAQSYLDGTYTEYFPNITKDEAGLQKFFRQFSYPGGIPSHYAPETPGSIHEGGELGYALSHAYGAVMNNPSLFVPAIVGDGEAETGPLATGWQSNKLINPRTDGIVLPILHLNGYKIANPTILSRISDEELHEFFHGMGYEPYEFVAGFDNEDHLSIHRRFAELFETVFDEICDIKAAAQTDDMTRPFYPMIIFRTPKGWTCPKFIDGKKTEGSWRSHQVPLASARDTEAHFEVLKNWLESYKPEELFDENGAVKPEVTAFMPTGELRIGENPNANGGRIREELKLPKLEDYEVKEVAEYGHGWGQLEATRRLGVYTRDIIKNNPDSFRIFGPDETASNRLQAAYDVTNKQWDAGYLSAQVDEHMAVTGQVTEQLSEHQMEGFLEGYLLTGRHGIWSSYESFVHVIDSMLNQHAKWLEATVREIPWRKPISSMNLLVSSHVWRQDHNGFSHQDPGVTSVLLNKCFNNDHVIGIYFPVDSNMLLAVAEKCYKSTNKINAIIAGKQPAATWLTLDEARAELEKGAAEWKWASNVKSNDEAQIVLAATGDVPTQEIMAAADKLDAMGIKFKVVNVVDLVKLQSAKENNEALSDEEFAELFTEDKPVLFAYHSYARDVRGLIYDRPNHDNFNVHGYEEQGSTTTPYDMVRVNNIDRYELQAEALRMIDADKYADKINELEAFRQEAFQFAVDNGYDHPDYTDWVYSGVNTNKQGAISATAATAGDNE
notes: homodimer
As to B1, in the series “purified protein”, the Michaelis-Menten constant (Km) is on record as 36.2 ± 3.2 mM.

B2: Bad.F6Pkt (Bifidobacterium adolescentis ATCC 15703; H548N) (protein)
chain: B1 chain with H548N
notes: homodimer
For B2, in “purified protein”, the Km amounted to 48.7 ± 0.4 mM.
